Test results from patent US9487561B2, “Biologically active complex and its preparation” (HAMLET PHARMA AB, priority 2010, dated 2016).

Legend:
[1] = system: bladder cancer; details: mouse, in vivo; cited from earlier work
[2] = system: kidney carcinoma (A498) cells; assay: extended microarray analysis (Illumina HumanHT-12); format: cell-based, human
Method: For the extended microarray analysis, gene expression was assessed by whole genome Illumina microarrays (HumanHT-12 Expression BeadChip). Data was normalized using cross-correlation (Chua et al., 2006 Nucleic Acids Research 34: e38). Genes with a log 2 fold change ≧1.2 in tumor cells and ≧2.0 in healthy, differentiated cells at any time point were regarded as differentially expressed (Benjamini-Hochberg adjusted p-value <0.05).
To identify the pathways that execute tumor cell death downstream of the ion channels, we further examined the global transcriptional responses to HAMLET in human lung carcinoma (A549) and kidney carcinoma (A498) cells over an extended period of 15 min to 24 hours. The p38 MAPK signaling pathway was identified as a top-scoring canonical pathway in A549 cells (FIG. 4A).
To examine the molecular basis of the difference in HAMLET susceptibility between carcinoma cells and healthy, differentiated cells, transcriptional profiles were compared. […] These cytokines were not secreted by the carcinoma cells.

[3] = system: p38, HSP27 in healthy, differentiated kidney cells; assay: MAPK phosphorylation in healthy cells; format: cell-based, human
[4] = system: bladder cancer; details: local instillations; cited from earlier work

B1: HAMLET (protein, UniProt P00709 20-142, looked up)
Alpha-lactalbumin: KQFTKCELSQLLKDIDGYGGIALPELICTMFHTSGYDTQAIVENNESTEYGLFQISNKLWCKSSQVPQSRNICDISCDKFLDDDITDDIMCAKKILDIKGIDYWLAHKALCTEKLEQWLCEKL
modifications: oleic acid complex
therapeutic efficacy in bladder cancer [1]: Therapeutic efficacy
number of genes responding to HAMLET [2]: 4424 genes
phosphorylation of p38, its isoforms, or HSP27 [3]: no phosphorylation of p38, its isoforms, or HSP27
death of tumor cells vs healthy tissue [4]: caused rapid death of tumor cells but not of healthy tissue surrounding the tumor
